Results published in the RNAGym collection of RNA variant scans (doi:10.7554/elife.90254).

B1: LINE1-full (parent)
chain: UACGUAGGUGGUUUUCCCCUGAUAGUGCUAAGGGGGCCUGGAAGUUUGGACUGGGCAGAGCUCAACACAGCGUGGCAAAGUGGCUGUGGCUAGACUGCCUCUCUGGAUUCCUCGUCACUCAGCAGGGCAUCUCUGAGAGAAAUGCC

Variants of: B1
Experiment: self-cleavage, relative activity (ratio to wild type); higher = more cleavage; in vitro, sequencing; the parent is a self-cleaving ribozyme

Variant	self-cleavage
G7A A138G	1.37
A6G U47A	0.91
A6G U47C	0.53
G7A C71A	0.29
A6U C71U	1.15
A6U G114A	0
U9A G35A	1.09
U9A G35C	1.87
G7C U13C	2.07
G7C U81A	2.25
A6G U87A	0.17
G7C G40A	1.27
G7C U85C	1.26
G8A A59G	0.16
G7A U109C	1.19
G7U C123U	1.39
G7A A142G	1.59
G7C U12G	1.19
G7A U9C	0.68
U9A U81C	1.1
A6G U104C	1.23
U9A A138G	0.87
G7U U87C	0.18
G7U U87A	0.12

Variant	self-cleavage
A6U U104C	1.02
U9A C51A	1.47
G8C A140G	2.03
G7A U26C	2
G8A A107G	1.58
G7U A65G	0.13
G7U A65U	0.17
U9A G114C	0.61
G7U G54C	0.49
G7U G54A	0.94
A6U U119C	0.75
G8A A142G	1.45
G7U U132C	1.23
A6U A69G	0.89
G8U A50G	1.19
U9A A92U	0.73
G7A U143C	1.29
U9A U132C	1.04
U9A A124U	1.2
U9A U39C	0.25
U9A U39A	1.16
G8A U119C	1.1
G8A U119A	2.47
G8A U134C	1.55

Variant	self-cleavage
U9A G93A	0.06
U9A G93U	0.3
G8C A50G	1.14
U9A G70C	0.3
U9A G74A	1.09
A6G U132C	0.9
U9A U143G	1.98
U9A U143A	1.34
U9A U143C	0.94
G7U A57G	0.12
U9A A77U	0.85
U9C A22U	0.89
A6U A92G	0.27
A6U A92U	0.47
G8A U104C	1.29
G8A U104A	1.25
G8A A77U	1.23
U9A U108C	0.9
G7C	1.4
G7U	1.35
G7A	1.08
A6U U46A	1.07
U9A U15A	1.07
A6U A43G	1.01

Variant	self-cleavage
A6U A43U	0.89
A6G U9C	1.16
U9A A78U	1.65
U9A A78G	1.13
U9A U85C	0.54
U9A U85A	0.09
A6G U91C	0.51
A6U U87G	0.12
U9A A136G	1.29
G7U U47A	1.2
U9C A121U	1.32
A6G G83A	0.26
U9A G55C	0.09
G8A G48A	0.44
U9A C61U	0.02
U9A C18G	1.1
U9A C18A	1.09
G8A A141G	1.1
A6U U26C	0.94
A6U U26A	0.87
A6G U26A	0.68
G7U U73C	1.55
G7U A140G	1.33
A6U U85C	0.4

Variant	self-cleavage
A6U G126U	1.16
A6U G126A	1.8
U9A U115C	1.55
A6G U13C	0.93
U9A U112A	0.82
U9A U112C	1.32
A6G U130A	1.18
G8C U14G	1.39
U9C A69G	0.83
U9A A121C	0.46
G7U A142G	1.15
A6G G139U	0.96
U9A G53A	1.53
U9A A24U	1.01
U9A A117G	0.96
U9A A117U	1.11
U9A G105A	1.35
U9A A140C	1.06
U9A A140G	1.11
G8A U13C	1.05
A6U C133A	0.49
G8C A138G	1.44
G7C U73C	0.74
U9A G72A	0.81

Variant	self-cleavage
G7C A129U	1.17
U9C A65U	0.32
U9A U14A	1.03
U9A U46C	0.98
G8A U81C	1.25
A6U C18U	0.84
A6G G137U	0.81
U9A A42C	0.56
U9A A42U	1.09
U9A A42G	1.14
U9A C71A	0.6
U9A A94G	0.27
A6U G36A	0.88
A6U G105U	1.71
G8A G86A	0.09
G7U U52C	1.1
A6U G53A	0.9
A6G U81C	1.78
A6U A117G	0.3
A6U A117U	1.53
U9A U100C	1.18
G7A U52A	0.89
A6U A59C	0.74
A6U A59G	0.11

Variant	self-cleavage
U9A U12G	0.67
U9A U12C	0.86
U9A U102C	1.03
G7A C56U	0.17
G8A A67C	0
G7A G54A	0.4
G7A G75A	0.95
G7U A136G	1.86
U9A A57G	0.98
U9A A57U	0.19
A6G U15A	0.58
A6G U15C	0.84
G7A A141G	0.69
G7U A124G	1.19
A6U G41A	1.52
G7A U102C	1.77
G7U U91A	1.12
G7A A124C	1.37
G7A A124G	0.6
G8C G75A	1.2
G7U U85A	0.13
U9A G126A	0.82
U9A C37U	0.63
G8A A50G	0.85

Variant	self-cleavage
A6U G55U	0.4
G7C A92G	0
G8U C37U	1.51
G8U C37G	1.18
G8U U143A	2.02
U9C A77G	1.92
G7U C16U	1.5
U9A U47C	1.37
G7U U9C	1.56
A6U A64C	0.68
U9C A43G	1.12
G7C U102C	0
A6U G54U	0.94
G7A C18U	1.59
A6U U47C	0.8
U9C A107U	1.59
U9C A107G	1.61
G7A U47C	1.21
G7A C111U	0.35
U9A U23A	0.36
G7C U143C	1.93
A6U U109A	0.99
A6U U115C	1.28
U9C A67G	0.48

Variant	self-cleavage
U9C A67U	0.26
U9A U20A	1.41
U9A G89A	0.1
G8U C56U	0.28
U9A G32A	1.73
G8U U13C	2.33
U9A C128U	0.9
G8A C37U	1.31
A6G U143A	0.89
U9C A57G	0.96
G7U G40A	1.47
G8A A78G	2.03
A6U U9C	0.36
A6U U9A	1.56
U9C A42G	1.32
U9A G36U	0.71
G8A U20C	1.59
U9A U26C	1.24
U9A U26A	0.7
G8C U143A	2.06
U9A A31G	1.35
A6G U115C	0.7
G7U U20C	1.15
A6U U73C	1.21

Variant	self-cleavage
A6U U62A	0.06
A6U G137A	1.53
U9A A22U	0.89
G7A A107G	1.22
A6G U73A	1.11
A6U A142G	0.81
A6U A142C	0.28
U9A U96A	0.08
A6U A121G	0.87
G7U U45C	0.86
U9A U52C	0.74
U9A U52A	0.9
A6G U85C	0.2
A6G U85G	0
A6G U85A	0
G8A G97A	0.41
A6U A30U	0.58
A6U A30G	1.01
A6U U132C	1.33
G7U U13A	0.71
G7U U13C	0.99
U9A C16U	0.45
G7U A107G	1.36
G8C A142G	1.21

Variant	self-cleavage
G7U G70A	0.2
G7C U52A	1.32
A6G U14C	0.61
G8C U46C	1.13
U9A G27A	0.81
A6U U81C	1.06
G8A A140G	1.55
U9C A94U	0.21
U9C A94G	0.66
U9C A94C	0.11
G7A U45A	0.53
A6U U12A	0.84
A6U U12G	1.21
A6U A136G	1.33
U9A C113A	0.39
U9A C113U	0.97
G8U U130C	1.66
G7A U91C	0.34
G7A U115C	1.21
G8U A124U	1.47
A6G U20G	1.34
U9A U62A	0.12
U9A A141G	1.36
U9A C145U	1.64

Variant	self-cleavage
G8A U46A	2.02
G8A A121C	0.46
G8A A121G	0.54
G8C A129G	1.31
U9C A78G	1.19
U9A U134C	1.4
G8C A121C	1.75
A6U C66U	0.09
U9A A67G	0.58
G8C U39C	0.91
A6U A124U	1.51
U9A U87G	0.23
G8A A65G	0
G7C G48A	0.92
G7A A30U	0.92
G7A U130C	0.94
G7C A69G	0.79
G8A C131A	0.51
A6G U119C	0.73
U9A U73G	1.29
A6U G32U	0.54
G8A U132C	1.58
A6U A24G	1.13
U9C A64G	0.45

Variant	self-cleavage
G7A U13C	0.81
U9C A117U	1.62
U9C A117G	1.53
G7A U23A	0.85
U9C A59U	0.72
G7U U115C	0.79
U9A U104C	1.17
G7C A140G	1.37
U9A C90A	0.04
U9A C90U	0
G8U A59U	0.63
U9A U109C	1.34
G8A C38U	1.41
A6G U134C	0.85
A6G U134A	0.52
G8U U62A	0.12
A6U A67G	0.49
A6U A67U	0.22
A6G G86A	0.31
G8A U143C	1.45
G8A U14C	1.32
U9A U45C	0.91
U9A G80A	1.92
G7A A129U	1.21

Variant	self-cleavage
A6U G72A	1.2
A6G U52C	0.72
U9C A50C	1.25
U9A A142G	1.13
G7U U112C	1.15
G7U U112A	1.06
A6U U52C	1.02
G8A U62G	0
G8A U62C	0.05
A6G U100C	0.87
G8U U15C	1.62
U9A C99A	0.67
A6U U13C	1.25
G7A U100C	2.45
U9A A129U	1.43
A6U U134A	1.28
G7U A30G	0.78
A6G U23G	0.85
U9A U13C	0.81
U9A U13A	1.12
U9A G127U	1.92
A6U A77G	1.51
